Patent US20260166131A1, “METHOD FOR PROMOTING PATHOLOGICAL TDP-43 PROTEIN DEGRADATION, AND DRUG” (TALENGEN INTERNATIONAL LIMITED, priority 2022, published 2026)
Values joined by “and” are separate entries in the source; they are usually repeats but may differ in a detail not shown here. Identical values can stand only once.

Key:
[1] = system: TDP-43; experiment: TDP-43 in brain tissue of mice injected with TDP-43 in the brain and LPS (Western blot); type: in vivo; details: C57BL/6J mice, hippocampal TDP-43 injection + LPS, 50 mg/kg tail vein for 3 days, vs vehicle group, P<0.05
Protocol: Nine C57BL/6J female mice aged 6-7 weeks were selected and weighed before modeling. After weighing, all mice were randomly divided into two groups: 3 mice in blank control group, and 6 mice in model group. After grouping, mice in the sham operation group and model group were anesthetized with intraperitoneal injection of tribromoethanol at a dose of 20 mL/kg. Model mice were located in the hippocampus according to the mouse stereotaxic atlas (based on the coordinates of the bregma: AP-2.54 mm, ML±2 mm, DV-2.4 mm), and each mouse was slowly microinjected bilaterally. Mice in the sham operation group were only drilled at the coordinate location point without injection. The mice in the model group were injected with TDP-43 solution at an injection rate of 0.5 μL/min and an injection volume of 3 μL/side. After the injection, the syringe stayed for 5 minutes and then slowly withdrew. Three days after the brain localization injection, all mice were weighed, and the mice in the model group were intraperitoneally injected with 5 mg/kg LPS solution according to their body weight. Then the mice in the model group were randomly divided into two groups: 3 mice in the plasminogen group and 3 mice in the vehicle group. […] The vehicle and plasminogen were administered continuously for 3 days. […] After homogenization, TDP-43 was detected by western blot.

[2] = Spinal cord tissue plasminogen level after tail vein injection in SOD1-G93A mice (ELISA); type: in vivo, mouse
Source text: Spinal cord tissue was obtained from the mice sacrificed in Example 11, homogenizing and detecting according to the instructions of Human Plasminogen ELISA Kit (manufacturer: AssayMax, catalog number: EP1200-1). The human plasminogen working standard in the kit was used as the internal standard to calibrate the concentration of each sample. The calibrated concentration was divided by the total protein concentration to calculate the amount of plasminogen per unit of total protein in each sample and perform statistical analysis.

[3] = Plasmin activity in brain homogenate of FAD mice (enzyme substrate kinetic method); type: in vivo, mouse; details: 2 hours
Protocol: 85 μL/well of seven different concentrations of standard solution, blank, and sample were added to the ELISA plate (manufacturer: NUNC, catalog number: 446469) in sequence, and then 15 μL of 20 mM S-2251 solution (manufacturer: Chromogenix, catalog number: 82033239) was added to each well to incubate at 37° C. Starting from 0 min of reaction, the A405 absorbance value was read in a multifunctional microplate reader every 5 min until the reaction time was 90 min. All reactions were fitted with a straight line by time and absorbance, and the slope of the straight line was the reaction rate of the standard/sample (ΔA405/min). Finally, the potency value of the standard substance and ΔA405/min were used to create a standard curve to calculate the potency of the measured samples. The plasmin activity per unit of total protein in each sample was calculated.

[4] = Brain tissue plasminogen level after tail vein injection in FAD mice (ELISA)
[5] = Brain tissue plasminogen level after tail vein injection in SOD1-G93A mice (ELISA)
Protocol: Twenty-seven 10-15 week-age B6.Cg-Tg (SOD1-G93A) 1Gur/J (SOD1-G93A) mice (pedigree number: 004435) (referred to as SOD1-G93A mice) (breeding mice were purchased from Jackson Laboratory, USA) were randomly divided into three groups: three in the vehicle control group, 12 in the 6 mg/kg plasminogen group, and 12 in the 50 mg/kg plasminogen group. The mice in the vehicle control group were injected with vehicle at 5 ml/kg by tail vein, the mice in the 6 mg/kg plasminogen group were injected with plasminogen (1.2 mg/ml) at 6 mg/kg body weight by tail vein, and the mice in the 50 mg/kg plasminogen group were injected with plasminogen (10 mg/ml) at 6 mg/kg body weight by tail vein.
Brain tissue was obtained from the mice sacrificed in Example 11, homogenizing and detecting according to the instructions of Human Plasminogen ELISA Kit (manufacturer: AssayMax, catalog number: EP1200-1). The human plasminogen working standard in the kit was used as the internal standard to calibrate the concentration of each sample. The calibrated concentration was divided by the total protein concentration to calculate the amount of plasminogen per unit of total protein in each sample and perform statistical analysis.

[6] = Spinal cord tissue plasminogen level after tail vein injection in FAD mice (ELISA)
Protocol: Twenty-seven 16-week-age B6SJL-Tg (APPSwFlLon, PSEN1*M146L* L286V) 6799Vas Mmjax (Stock Number: 034840) (FAD mice for short) (breeding mice were purchased from Jackson Laboratory, USA) were randomly divided into three groups: three mice in vehicle control group, 12 mice in 6 mg/kg plasminogen group, and 12 mice in 50 mg/kg plasminogen group. The mice in the vehicle control group were injected with vehicle at 5 ml/kg by tail vein, the mice in the 6 mg/kg plasminogen group were injected with plasminogen (1.2 mg/ml) at 6 mg/kg body weight by tail vein, and the mice in the 50 mg/kg plasminogen group were injected with plasminogen (10 mg/ml) at 6 mg/kg body weight by tail vein. […] Three mice in the 6 mg/kg plasminogen group and three mice in the 50 mg/kg plasminogen group were killed 2, 6, 12 and 24 hours after administration, and their blood was collected.
Spinal cord tissue was obtained from the mice sacrificed in Example 21, homogenizing and detecting according to the instructions of Human Plasminogen ELISA Kit (manufacturer: AssayMax, catalog number: EP1200-1). The concentration of each sample was calibrated by using human plasminogen working standard as the internal standard. The calibrated concentration was divided by the total protein concentration to calculate the amount of plasminogen per unit of total protein in each sample and perform statistical analysis.

[7] = biological target: TDP-43 (Mus musculus, UniProt Q921F2); experiment: TDP-43 in spinal cord tissue of SOD1-G93A mice after plasminogen (Western blot); type: in vivo; set-up: from tissue; host or cells: mouse spinal cord, gluteal muscle, brain, kidney cell nuclei; details: 50 mg/kg tail vein, 24 hours after administration, vs vehicle group, P<0.05
Protocol: Six SOD1-G93A mice aged 10-15 weeks were randomly divided into two groups: 3 mice in vehicle control group, and 3 mice in plasminogen group. The vehicle control group mice were injected with the vehicle at 5 ml/kg by tail vein, and the plasminogen group mice were injected with plasminogen (10 mg/ml) at 50 mg/kg body weight by tail vein. The mice were killed 24 hours after administration, and the spinal cords were obtained. After homogenization, TDP-43 was detected by western blot.

[8] = tail vein injection of 50 mg/kg
[9] = tail vein injection of 6 mg/kg, 6 mg/kg
[10] = tail vein injection of 50 mg/kg, 50 mg/kg
[11] = 6 mg/kg plasminogen group, 2 hours
[12] = 6 mg/kg plasminogen group, 6 hours
[13] = 50 mg/kg plasminogen group, 2 hours
[14] = 50 mg/kg plasminogen group, 6 hours
[15] = 50 mg/kg plasminogen group, 12 hours

Chain of TDP-43 (Mus musculus, UniProt Q921F2) (Q921F2 whole entry): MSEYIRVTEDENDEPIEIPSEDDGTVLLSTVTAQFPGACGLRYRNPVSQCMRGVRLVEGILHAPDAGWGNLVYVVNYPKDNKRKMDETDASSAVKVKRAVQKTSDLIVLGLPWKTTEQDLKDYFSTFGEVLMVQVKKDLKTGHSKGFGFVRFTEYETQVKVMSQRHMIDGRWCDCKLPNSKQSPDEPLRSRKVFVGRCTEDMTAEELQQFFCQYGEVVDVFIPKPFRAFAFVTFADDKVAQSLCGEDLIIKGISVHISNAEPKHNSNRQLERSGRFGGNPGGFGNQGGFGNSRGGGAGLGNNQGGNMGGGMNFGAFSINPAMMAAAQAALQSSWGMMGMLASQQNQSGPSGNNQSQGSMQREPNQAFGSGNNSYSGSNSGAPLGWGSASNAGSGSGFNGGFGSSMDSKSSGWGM

B1: plasminogen: human plasminogen purified from human donor plasma, in which human Lys-plasminogen and Glu-plasminogen are >98% (protein)
chain: KVYLSECKTGNGKNYRGTMSKTKNGITCQKWSSTSPHRPRFSPATHPSEGLEENYCRNPDNDPQGPWCYTTDPEKRYDYCDILECEEECMHCSGENYDGKISKTMSGLECQAWDSQSPHAHGYIPSKFPNKNLKKNYCRNPDRELRPWCFTTDPNKRWELCDIPRCTTPPPSSGPTYQCLKGTGENYRGNVAVTVSGHTCQHWSAQTPHTHNRTPENFPCKNLDENYCRNPDGKRAPWCHTTNSQVRWEYCKIPSCDSSPVSTEQLAPTAPPELTPVVQDCYHGDGQSYRGTSSTTTTGKKCQSWSSMTPHRHQKTPENYPNAGLTMNYCRNPDADKGPWCFTTDPSVRWEYCNLKKCSGTEASVVAPPPVVLLPDVETPSEEDCMFGNGKGYRGKRATTVTGTPCQDWAAQEPHRHSIFTPETNPRAGLEKNYCRNPDGDVGGPWCYTTNPRKLYDYCDVPQCAAPSFDCGKPQVEPKKCPGRVVGGCVAHPHSWPWQVSLRTRFGMHFCGGTLISPEWVLTAAHCLEKSPRPSSYKVILGAHQEVNLEPHVQEIEVSRLFLEPTRKDIALLKLSSPAVITDKVIPACLPSPNYVVADRTECFITGWGETQGTFGAGLLKEAQLPVIENKVCNRYEFLNGRVQSTELCAGHLAGGTDSCQGDSGGPLVCFEKDKYILQGVTSWGLGCARPNKPGVYVRVSRFVTWIEGVMRNN
amount of TDP-43 monomer in brain tissue [1]: significantly lower
amount of low molecular weight TDP-43 in brain tissue [1]: significantly lower
plasminogen level in the spinal cord, 50 mg/kg group compared with 6 mg/kg group ([2]; tail vein): significantly higher
time within which plasminogen is almost completely metabolized (spinal cord) ([2]; tail vein 50 mg/kg and 6 mg/kg): 12 to 24 h
plasminogen level in the spinal cord ([2]; tail vein injection of 6 mg/kg): increase significantly
plasminogen level in the spinal cord [2, 8]: increase significantly
plasmin activity level in brain tissue [3, 9]: increases significantly
plasmin activity level in brain tissue [3, 10]: increases significantly
level in brain tissue, 50 mg/kg group compared with 6 mg/kg group ([3]; tail vein): significantly higher
ratio of plasminogen in brain tissue to plasminogen in blood [4, 11]: 3.59%
ratio of plasminogen in brain tissue to plasminogen in blood [4, 12]: 4.23%
ratio of plasminogen in brain tissue to plasminogen in blood [4, 13]: 2.49%
ratio of plasminogen in brain tissue to plasminogen in blood [4, 14]: 2.31%
ratio of plasminogen in brain tissue to plasminogen in blood [4, 15]: 3.32%
plasminogen level in brain tissue, 50 mg/kg group compared with 6 mg/kg group ([4]; tail vein): significantly higher
time within which plasminogen is almost completely metabolized (brain tissue) ([4]; tail vein 50 mg/kg and 6 mg/kg): 12 to 24 h
plasminogen level in brain tissue ([4]; tail vein injection of 6 mg/kg): increase significantly
plasminogen level in brain tissue [4, 8]: increase significantly
plasminogen level in brain tissue, 50 mg/kg group compared with 6 mg/kg group ([5]; SOD1-G93A mice, tail vein): significantly higher
time within which plasminogen is almost completely metabolized (brain tissue) ([5]; SOD1-G93A mice, tail vein 50 mg/kg and 6 mg/kg): 12 to 24 h
plasminogen level in brain tissue ([5]; SOD1-G93A mice, tail vein injection of 6 mg/kg): increase significantly
plasminogen level in brain tissue ([5]; SOD1-G93A mice, tail vein injection of 50 mg/kg): increase significantly
ratio of brain tissue plasminogen level to blood plasminogen level ([5]; mouse, in vivo): 3.47% and 4.94% and 6.79%
ratio of plasminogen in spinal cord tissue to plasminogen in blood [6, 11]: 0.93%
ratio of plasminogen in spinal cord tissue to plasminogen in blood [6, 12]: 1.62%
ratio of plasminogen in spinal cord tissue to plasminogen in blood [6, 13]: 0.33%
ratio of plasminogen in spinal cord tissue to plasminogen in blood [6, 14]: 0.40%
ratio of plasminogen in spinal cord tissue to plasminogen in blood [6, 15]: 1.56%
plasminogen level in spinal cord tissue, 50 mg/kg group compared with 6 mg/kg group ([6]; tail vein): significantly higher
time within which plasminogen is almost completely metabolized (spinal cord tissue) ([6]; tail vein 50 mg/kg and 6 mg/kg): 12 to 24 h
plasminogen level in spinal cord tissue [6, 9]: increases significantly
plasminogen level in spinal cord tissue [6, 10]: increases significantly
amount of TDP-43 monomer in spinal cord tissue [7]: significantly lower
